Patent US11839219B2, “BVP10 protein for controlling tetranychid mites and use thereof” (priority 2021, dated 2023)

Assays:
[1] = tested on: strawberry red spider mites; test: Field control of strawberry red spider mites; format: in vivo; conditions: for Control effect (%): corrected against fresh water control
Experimental: Test agents: 20% avermectin spirodiclofen suspension (Hebei Xingbai Agricultural Technology Co., Ltd., diluted 3000 times during use; and the biological mite pesticide BVP10 with the effective protein concentration of 389.5 μg/mL.
The test included three treatments, each repeated three times; blocks are randomly permuted; and the agents are applied to […] in each block with protective rows provided around the plants. […] Ten strawberry plants are taken from each block, with one leaf labeled for each plant. The number of red spider mites on both sides of each of the ten leaves are inspected. The red spider mites are directly observed with a hand-held magnifying lens, and the number of all living mites is taken down. The initial population number of the red spider mites is investigated before the application, and a total of three investigations are conducted on Day 1, Day 4, and Day 7 respectively after the application.
Calculation method of pesticidal effect: the control effect is calculated based on the initial population number of the red spider mites before the application and the number of living red spider mites on each day after the application, and the calculation formula is shown below: The data is analyzed for significance using Duncan's new multiple range method of DPS software.

Panonychus citri = test: Slide dipping method, miticidal activity against Panonychus citri; conditions: for Mortality (%): 24 hrs after dipping; for Probability Unit (P + 5): probit of mortality
Description: (§1) Referring to the standard method for determining pest mites, namely, the slide dipping method, recommended by the Food and Agriculture Organization of the United Nations (FAO), a double-faced adhesive tape is cut into pieces 2-3 cm long and stuck to one end of a microscope slide, and paper on the adhesive tape is removed with tweezers. Female adult mites with similar sizes, bright body color and high vitality are picked with a 0# Chinese writing brush, and are stuck to the double-faced adhesive tape (note: the feet, whiskers, and mouthparts of the mites should not be stuck) on their backs, with 4 lines stuck to each piece and 10 mites in each line. The mites are placed and left in a biochemical incubator with the temperature of 25° C. and a relative humidity of approximately 85% for 4 hrs, and then are observed with binoculars. […] The agent is diluted 5-7 times with water based on a preliminary test. One end of the slide with the mites is dipped into the agent solution, shaken lightly for 5 s and then taken out. The mites, as well as the excessive agent solution therearound, are rapidly dried with absorbent paper. The slide is placed and left in the above biochemical incubator. After 24 hrs, the results are checked with the binoculars. The bodies of the mites are lightly touched with the Chinese writing brush, and those without any motion of their feet are considered to be dead. The test is repeated three times at each concentration, and the mites dipped in fresh water are taken as a control. […] An LC50 value is calculated by using the SPASS 19.0 data processing software.

Tetranychus cinnabarinus = test: Slide dipping method, miticidal activity against Tetranychus cinnabarinus; conditions: for Mortality (%): 24 hrs after dipping; for Probability Unit (P + 5): probit of mortality
Description: as §1
An LC50 value is calculated by using the SPASS 19.0 data processing software.

Tetranychus urticae = test: Slide dipping method, miticidal activity against Tetranychus urticae; conditions: for Mortality (%): 24 hrs after dipping; for Probability Unit (P + 5): probit of mortality
Description: as §1, with “by” for “by the”, “body color,” for “body color”, “incubator for 4 hrs at” for “incubator with the”, “approximately 85%,” for “approximately 85% for 4 hrs,”, “5 s,” for “5 s”, “using” for “using the”

[2] = Day 4 after application, field spray on strawberry leaves
[3] = Day 7 after application, field spray on strawberry leaves
[4] = Dose 19.475 μg/mL, female adult mites
[5] = Dose 38.95 μg/mL, female adult mites
[6] = Dose 77.9 μg/mL, female adult mites
[7] = Dose 389.5 μg/mL, female adult mites

B1: BVP10 protein: protein shown in SEQ ID NO:2 for controlling tetranychid mites, prokaryotically expressed in Escherichia coli BL21, about 10 kDa (protein)
chain: MLKSKIKKIAGAAVIAGALLVSVSPAKAETLPGLIWVMDKYTDAFKFDMFIKNGNEKWVYVYTRLSDGKVDVEEVKCETIYKDRCYVKQ
modifications: Sequence for protein prepared by prokaryotic expression, eukaryotic expression, or direct synthesis, based the gene sequence of SEQ ID NO 1
Control effect (%) ([1]; Day 1 after application): 79.53%
Decline rate (%) of living mites ([1]; Day 1 after application, field spray on strawberry leaves): 41.14%
Residual no of mites ([1]; Day 1 after application, field spray on strawberry leaves, BVP10 389.5 μg/mL, reference diluted 3000 times): 206
Control effect (%) ([1]; Day 4 after application): 83.71%
Decline rate (%) of living mites [1, 2]: 33.14%
Residual number of mites [1, 2]: 234
Control effect (%) ([1]; Day 7 after application): 95.45%
Decline rate (%) of living mites [1, 3]: 77.14%
Residual number of mites [1, 3]: 80
Mortality (%) (Panonychus citri; [4]): 23.5%
Probability Unit (P + 5) (Panonychus citri; Dose 19.475 μg/mL): 4.276
Mortality (%) (Panonychus citri; [5]): 47.1%
Probability Unit (P + 5) (Panonychus citri; Dose 38.95 μg/mL): 4.922
Mortality (%) (Panonychus citri; [6]): 63.6%
Probability Unit (P + 5) (Panonychus citri; Dose 77.9 μg/mL): 5.349
Mortality (%) (Panonychus citri; [7]): 78.6%
Probability Unit (P + 5) (Panonychus citri; Dose 389.5 μg/mL): 5.793
Medial Lethal Concentration (LC50, μg/mL) (Panonychus citri; female adult mites, 24 hrs, regression Y = 3.0472 + 1.1072X (r = 0.9548)): 58.05 µg/mL
Medial Lethal Concentration (LC50, μg/mL) (Tetranychus cinnabarinus; 24 hrs, regression Y = 2.3766 + 1.6846X (r = 0.9797)): 36.08 µg/mL
Mortality (%) (Tetranychus cinnabarinus; Dose 19.475 μg/mL): 27.8%
Probability Unit (P + 5) (Tetranychus cinnabarinus; Dose 19.475 μg/mL): 4.413
Mortality (%) (Tetranychus cinnabarinus; Dose 38.95 μg/mL): 51.4%
Probability Unit (P + 5) (Tetranychus cinnabarinus; Dose 38.95 μg/mL): 5.039
Mortality (%) (Tetranychus cinnabarinus; Dose 77.9 μg/mL): 80.0%
Probability Unit (P + 5) (Tetranychus cinnabarinus; Dose 77.9 μg/mL): 5.840
Mortality (%) (Tetranychus cinnabarinus; Dose 389.5 μg/mL): 94.7%
Probability Unit (P + 5) (Tetranychus cinnabarinus; Dose 389.5 μg/mL): 6.616
Mortality (%) (Tetranychus urticae; [4]): 47.2%
Probability Unit (P + 5) (Tetranychus urticae; Dose 19.475 μg/mL): 4.927
Mortality (%) (Tetranychus urticae; [5]): 60.6%
Probability Unit (P + 5) (Tetranychus urticae; Dose 38.95 μg/mL): 5.268
Mortality (%) (Tetranychus urticae; [6]): 55.9%
Probability Unit (P + 5) (Tetranychus urticae; Dose 77.9 μg/mL): 5.148
Mortality (%) (Tetranychus urticae; [7]): 68.4%
Probability Unit (P + 5) (Tetranychus urticae; Dose 389.5 μg/mL): 5.483
Medial Lethal Concentration (LC50, μg/mL) (Tetranychus urticae; female adult mites, 24 hrs, regression Y = 4.5286 + 0.3682X (r = 0.8832)): 19.07 µg/mL
